We go through one substance from patent US20110311550A1.

What all share (experiment): ELISA, lectin-captured E1E2 lysate, Ab 1 ug/ml
For assay [1], the target named is E1E2 complex (H77) with E1 mutation S211A (HCV genotype 1a, isolate H77) (UniProt P27958).
Assay [2] addresses E1E2 complex (H77) with E2 mutation R630A (HCV genotype 1a, isolate H77) (UniProt P27958).
Assay [3] concerns the target E1E2 complex (H77) with E1 mutation Y309A (HCV genotype 1a, isolate H77) (UniProt P27958).
Assay [4] addresses E1E2 complex (H77) with E1 mutation F291A (HCV genotype 1a, isolate H77) (UniProt P27958).
The target in assay [5] is E1E2 complex (H77) with E1 mutation G225A (HCV genotype 1a, isolate H77) (UniProt P27958).
Assay [6] has as its target E1E2 complex (H77) with E1 mutation P244A (HCV genotype 1a, isolate H77) (UniProt P27958).
The target of assay [7] is E1E2 complex (H77) with E2 mutation R614A (HCV genotype 1a, isolate H77) (UniProt P27958).
Assay [8] has as its target E1E2 complex (H77) with E2 mutation H617A (HCV genotype 1a, isolate H77) (UniProt P27958).
The target in assay [9] is E1E2 complex (H77) with E1 mutation S236A (HCV genotype 1a, isolate H77) (UniProt P27958).
Assay [10] addresses E1E2 complex (H77) with E1 mutation L258A (HCV genotype 1a, isolate H77) (UniProt P27958).
Assay [11] has as its target E1E2 complex (H77) with E1 mutation N196A/N209A (HCV genotype 1a, isolate H77) (UniProt P27958).
Assay [12] deals with E1E2 complex (H77) with E2 mutation N428A (HCV genotype 1a, isolate H77) (UniProt P27958).
In assay [13] the target is E1E2 complex (H77) with E1 mutation V266A (HCV genotype 1a, isolate H77) (UniProt P27958).
In assay [14] the target is E1E2 complex (H77) with E1 mutation N305A/N209A (HCV genotype 1a, isolate H77) (UniProt P27958).
The target in assay [15] is E1E2 complex (H77) with E1 mutation R259A (HCV genotype 1a, isolate H77) (UniProt P27958).
Assay [16] concerns the target E1E2 complex (H77) with E1 mutation T314A (HCV genotype 1a, isolate H77) (UniProt P27958).
The target of assay [17] is E1E2 complex (H77) with E1 mutation V227A (HCV genotype 1a, isolate H77) (UniProt P27958).
In assay [18] the target is E1E2 complex (H77) with E1 mutation R195A (HCV genotype 1a, isolate H77) (UniProt P27958).
Assay [19] has as its target E1E2 complex (H77) with E1 mutation H261A (HCV genotype 1a, isolate H77) (UniProt P27958).

mouse anti-E1 MAb A4 (antibody): the Binding relative to wt (%) in [1] is 106%; in [2] it was 106%; in assay [3] it was 78%; in [4], 67%; in assay [5], 106%; in assay [6], 85%. For the same substance, the Binding relative to wt (%) in assay [7] came to 133%; in assay [8] it was 140%; in assay [9], 88%; in assay [10] it was 99%; in [11], 51%; in assay [12], 127%. In addition, the Binding relative to wt (%) was determined as 96% in assay [13]; 117% in [14]; 97% in assay [15]; 99% in assay [16]; 150% in assay [17]; 197% in assay [18]. The Binding relative to wt (%) in assay [19] amounted to 96%.
